Read-outs that look alike come from different tables or passages of the source. *1 amine or outer side, *2 acyl side, *3 side chain or, on linkers, in order; H or OH if unused. Where no end group is shown, it is not given here. [ ]: non-standard residue; d: D form. Leu(4-F) = γ-19F-leucine (4-fluoro-leucine), CC(C)(F)C[C@H](N[*:1])C(=O)[*:2]; Phe(4-F) = N[C@@H](Cc1ccc(F)cc1)C(=O)O
Legend:
[1] = target: the molecule itself; assay: 19F solid-state NMR CODEX
[2] = target: the molecule itself; assay: 19F solid-state NMR CODEX; remark: listed apart in the source

B1: 4-19F-Phe23 labeled ETM (transmembrane domain of the SARS-CoV-2 envelope protein, residues 8-38) (peptide)
peptide: ETGTLIVNSVLLFLA[Phe(4-F)]VVFLLVTLAILTALR-NH2
modifications: N-terminus assumed
SMILES: CC[C@H](C)[C@H](NC(=O)[C@H](C)NC(=O)[C@H](CC(C)C)NC(=O)[C@@H](NC(=O)[C@@H](NC(=O)[C@H](CC(C)C)NC(=O)[C@H](CC(C)C)NC(=O)[C@H](Cc1ccccc1)NC(=O)[C@@H](NC(=O)[C@@H](NC(=O)[C@H](Cc1ccc(F)cc1)NC(=O)[C@H](C)NC(=O)[C@H](CC(C)C)NC(=O)[C@H](Cc1ccccc1)NC(=O)[C@H](CC(C)C)NC(=O)[C@H](CC(C)C)NC(=O)[C@@H](NC(=O)[C@H](CO)NC(=O)[C@H](CC(N)=O)NC(=O)[C@@H](NC(=O)[C@@H](NC(=O)[C@H](CC(C)C)NC(=O)[C@@H](NC(=O)CNC(=O)[C@@H](NC(=O)[C@@H](N)CCC(=O)O)[C@@H](C)O)[C@@H](C)O)[C@@H](C)CC)C(C)C)C(C)C)C(C)C)C(C)C)C(C)C)[C@@H](C)O)C(=O)N[C@@H](CC(C)C)C(=O)N[C@H](C(=O)N[C@@H](C)C(=O)N[C@@H](CC(C)C)C(=O)N[C@@H](CCCNC(=N)N)C(N)=O)[C@@H](C)O
[1]
  stoichiometry N: 5

## ETGTLIVNSVLL[Phe(4-F)]LAFVVFLLVTLAILTALR [4-19F-Phe20 labeled ETM (transmembrane domain of the SARS-CoV-2 envelope protein)]
[2]
  stoichiometry N: 5

B2: γ-19F-Leu18 labeled ETM (transmembrane domain of the SARS-CoV-2 envelope protein, residues 8-38) (peptide)
peptide: Ac-ETGTLIVNSV[Leu(4-F)]LFLAFVVFLLVTLAILTALR-NH2
SMILES: CC[C@H](C)[C@H](NC(=O)[C@H](C)NC(=O)[C@H](CC(C)C)NC(=O)[C@@H](NC(=O)[C@@H](NC(=O)[C@H](CC(C)C)NC(=O)[C@H](CC(C)C)NC(=O)[C@H](Cc1ccccc1)NC(=O)[C@@H](NC(=O)[C@@H](NC(=O)[C@H](Cc1ccccc1)NC(=O)[C@H](C)NC(=O)[C@H](CC(C)C)NC(=O)[C@H](Cc1ccccc1)NC(=O)[C@H](CC(C)C)NC(=O)[C@H](CC(C)(C)F)NC(=O)[C@@H](NC(=O)[C@H](CO)NC(=O)[C@H](CC(N)=O)NC(=O)[C@@H](NC(=O)[C@@H](NC(=O)[C@H](CC(C)C)NC(=O)[C@@H](NC(=O)CNC(=O)[C@@H](NC(=O)[C@H](CCC(=O)O)NC(C)=O)[C@@H](C)O)[C@@H](C)O)[C@@H](C)CC)C(C)C)C(C)C)C(C)C)C(C)C)C(C)C)[C@@H](C)O)C(=O)N[C@@H](CC(C)C)C(=O)N[C@H](C(=O)N[C@@H](C)C(=O)N[C@@H](CC(C)C)C(=O)N[C@@H](CCCNC(=N)N)C(N)=O)[C@@H](C)O
[1]
  stoichiometry N: 5
